Data on 2 molecules can be found in paper PMC9233711, “Wiskott-Aldrich syndrome protein forms nuclear condensates and regulates alternative splicing” (Nature Communications, 2022).

Assay [1] deals with T1, recombinant WASP, full-length (1-502 a.a.) with a GST tag at the N-terminus (human, UniProt P42768 1-502).
T1 construct: Wiskott-Aldrich syndrome protein (WASP), human, full-length protein, 1-502 a.a; source: bought: Abnova (in vitro wheat germ expression system, purified by Glutathione Sepharose 4 Fast Flow); not shown: GST, N-terminal, kept
T1 sequence (looked up): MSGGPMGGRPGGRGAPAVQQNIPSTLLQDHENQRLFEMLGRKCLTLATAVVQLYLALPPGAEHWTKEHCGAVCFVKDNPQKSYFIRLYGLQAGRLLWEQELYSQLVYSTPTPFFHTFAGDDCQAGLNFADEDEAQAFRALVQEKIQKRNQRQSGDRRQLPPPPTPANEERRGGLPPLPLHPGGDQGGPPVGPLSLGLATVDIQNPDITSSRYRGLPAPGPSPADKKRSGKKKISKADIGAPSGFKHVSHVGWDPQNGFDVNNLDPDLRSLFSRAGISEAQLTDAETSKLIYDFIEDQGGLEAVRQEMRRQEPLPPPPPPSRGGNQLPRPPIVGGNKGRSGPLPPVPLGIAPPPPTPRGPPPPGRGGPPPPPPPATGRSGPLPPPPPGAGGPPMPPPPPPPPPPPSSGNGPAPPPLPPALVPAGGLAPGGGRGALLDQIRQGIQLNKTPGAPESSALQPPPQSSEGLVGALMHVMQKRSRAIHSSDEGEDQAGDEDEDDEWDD
As to the kind of experiment: MST; Monolith NT.115; SRSF2 labelled with RED-tris-NTA at 1 nM, WASP titrated 90 pM to 3 µM; 50 mM HEPES pH 7.5, 10 mM MgCl2, 100 mM KCl, 0.1 mg/ml BSA, 5% glycerol, 1 mM DTT. Particulars: both partners purified.

The target in assay [2] is T2, recombinant human full-length SRSF2, N-terminally 8X histidine- and SUMO-tagged and C-terminus Strep-tagged (human, UniProt Q01130 1-221, RED-tris-NTA dye on the His tag).
T2 chain: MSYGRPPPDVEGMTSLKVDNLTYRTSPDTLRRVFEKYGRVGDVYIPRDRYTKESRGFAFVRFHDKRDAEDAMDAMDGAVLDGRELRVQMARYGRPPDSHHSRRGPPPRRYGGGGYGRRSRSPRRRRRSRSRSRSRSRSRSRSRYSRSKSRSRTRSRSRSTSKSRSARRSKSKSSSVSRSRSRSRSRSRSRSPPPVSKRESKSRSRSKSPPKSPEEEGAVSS
As to the kind of experiment: MST.

B1: recombinant human full-length SRSF2, N-terminally 8X histidine- and SUMO-tagged and C-terminus Strep-tagged (natural protein, UniProt Q01130 1-221, looked up)
chain: MSYGRPPPDVEGMTSLKVDNLTYRTSPDTLRRVFEKYGRVGDVYIPRDRYTKESRGFAFVRFHDKRDAEDAMDAMDGAVLDGRELRVQMARYGRPPDSHHSRRGPPPRRYGGGGYGRRSRSPRRRRRSRSRSRSRSRSRSRSRYSRSKSRSRTRSRSRSTSKSRSARRSKSKSSSVSRSRSRSRSRSRSRSPPPVSKRESKSRSRSKSPPKSPEEEGAVSS
modifications: RED-tris-NTA dye on the His tag
notes: No tag cleavage step is described in the purification, so SUMO and Strep were probably still on the protein; The MST methods call it His6-tagged, the expression methods 8X histidine; also called His6-tagged SRSF2; recombinant SRSF2; source: E. coli BL21 (DE3), purified (HisTrap HP, dialysis); not shown: His8, N-terminal, kept
Regarding B1, in assay [1], the binding result is recorded as “binds”.

B2: recombinant WASP, full-length (1-502 a.a.) with a GST tag at the N-terminus (natural protein)
chain: MSGGPMGGRPGGRGAPAVQQNIPSTLLQDHENQRLFEMLGRKCLTLATAVVQLYLALPPGAEHWTKEHCGAVCFVKDNPQKSYFIRLYGLQAGRLLWEQELYSQLVYSTPTPFFHTFAGDDCQAGLNFADEDEAQAFRALVQEKIQKRNQRQSGDRRQLPPPPTPANEERRGGLPPLPLHPGGDQGGPPVGPLSLGLATVDIQNPDITSSRYRGLPAPGPSPADKKRSGKKKISKADIGAPSGFKHVSHVGWDPQNGFDVNNLDPDLRSLFSRAGISEAQLTDAETSKLIYDFIEDQGGLEAVRQEMRRQEPLPPPPPPSRGGNQLPRPPIVGGNKGRSGPLPPVPLGIAPPPPTPRGPPPPGRGGPPPPPPPATGRSGPLPPPPPGAGGPPMPPPPPPPPPPPSSGNGPAPPPLPPALVPAGGLAPGGGRGALLDQIRQGIQLNKTPGAPESSALQPPPQSSEGLVGALMHVMQKRSRAIHSSDEGEDQAGDEDEDDEWDD
What is called Kd is the equilibrium constant for the complex coming apart. On to B2, for which, in assay [2], the dissociation constant (Kd) was 211 nM.
